Measurements from PMC10126257, “Genome resequencing and transcriptome analysis reveal the molecular mechanism of albinism in Cordyceps militaris”.

T1: CmWC-3 (zinc-finger domain-containing protein, GATA-type) (Cordyceps militaris, UniProt G3J672 1-188)
T1 sequence: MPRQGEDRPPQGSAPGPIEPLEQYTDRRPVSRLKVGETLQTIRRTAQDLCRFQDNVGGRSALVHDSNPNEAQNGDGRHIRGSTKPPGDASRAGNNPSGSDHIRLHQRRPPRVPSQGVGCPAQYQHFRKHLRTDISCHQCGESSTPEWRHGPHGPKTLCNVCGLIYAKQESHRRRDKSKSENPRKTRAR

T2: CmWC-1 (white collar-1) (Cordyceps militaris, UniProt G3J3J5 1-963)
T2 sequence: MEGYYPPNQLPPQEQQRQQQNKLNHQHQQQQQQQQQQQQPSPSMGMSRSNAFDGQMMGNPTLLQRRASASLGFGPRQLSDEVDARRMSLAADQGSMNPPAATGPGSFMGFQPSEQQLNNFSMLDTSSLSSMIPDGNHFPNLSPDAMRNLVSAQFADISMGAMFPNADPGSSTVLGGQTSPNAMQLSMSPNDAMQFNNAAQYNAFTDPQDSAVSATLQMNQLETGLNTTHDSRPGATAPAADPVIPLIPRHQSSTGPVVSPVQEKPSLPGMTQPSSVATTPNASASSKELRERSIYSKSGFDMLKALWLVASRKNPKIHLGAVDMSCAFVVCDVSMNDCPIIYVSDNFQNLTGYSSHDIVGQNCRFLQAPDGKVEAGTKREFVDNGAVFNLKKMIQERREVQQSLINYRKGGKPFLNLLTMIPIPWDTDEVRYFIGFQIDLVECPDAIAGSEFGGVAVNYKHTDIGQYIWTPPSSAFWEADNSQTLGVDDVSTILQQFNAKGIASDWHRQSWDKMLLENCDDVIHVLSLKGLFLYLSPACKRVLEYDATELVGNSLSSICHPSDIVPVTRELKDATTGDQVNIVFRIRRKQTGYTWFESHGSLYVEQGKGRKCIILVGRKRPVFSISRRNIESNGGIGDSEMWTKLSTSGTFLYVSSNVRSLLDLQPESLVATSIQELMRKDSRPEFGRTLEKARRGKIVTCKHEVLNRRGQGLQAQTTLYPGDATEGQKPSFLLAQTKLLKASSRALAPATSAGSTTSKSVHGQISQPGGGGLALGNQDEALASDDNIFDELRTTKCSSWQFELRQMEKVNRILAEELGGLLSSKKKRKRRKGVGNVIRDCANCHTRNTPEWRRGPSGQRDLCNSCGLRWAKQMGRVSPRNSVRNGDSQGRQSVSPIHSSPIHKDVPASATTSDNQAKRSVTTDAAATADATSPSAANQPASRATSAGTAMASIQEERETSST


Key:
[1] = biological target: T1, CmWC-3 (zinc-finger domain-containing …); assay: EMSA; LightShift EMSA Kit (Thermo 20148); cold competitor 50x; proteins recovered in 1x PBS; binding buffer, salt, pH and temperature not stated; conditions: protein: recombinant; tags: GST (pGEX-6P-1); label: biotin on both strands (5'); blunt
CmWC-1 (white collar-1) = biological target: T2, CmWC-1 (white collar-1); assay: as above; conditions: protein: recombinant; tags: His (pCOLD I); label: biotin on both strands (5'); blunt

Binder	binding result [1]	binding result (CmWC-1 (white collar-1))
CmPKS promoter P2 probe (dsDNA) DNA 1: CGCAGCTGAGGGTATTGATAGCCGTGATCGAACCC DNA 2: GGGTTCGATCACGGCTATCAATACCCTCAGCTGCG	binds	no binding
CmPKS promoter P1 probe (dsDNA) DNA 1: TCATATGATTGTTGATAAATATGTTTTCCCAGTGA DNA 2: TCACTGGGAAAACATATTTATCAACAATCATATGA	binds	no binding
